In assay [1] the target is Spindlin1/C11orf84 complex (human) (UniProt Q9BUA3). Description: ITC; 25 °C, MicroCal ITC200; 20 mM HEPES pH 7.5, 150 mM NaCl; 0.8 mM H3 peptide injected into 50 μM protein or complex in the sample cell.
The target in assay [2] is Spindlin1 (aa: 50–262) (human) (UniProt Q9Y657). Description: ITC; 25 °C, MicroCal ITC200; 20 mM HEPES pH 7.5, 150 mM NaCl; 50 μM Spindlin1 or Spindlin1/C11orf84 complex in the cell, 0.8 mM peptide injected.
The target of assay [3] is Spindlin1 F141A/C11orf84 complex (human) (UniProt Q9Y657). The assay is described as above.
Target sequence in this assay (Q9Y657 50-262 F141A, chain 1 of 2): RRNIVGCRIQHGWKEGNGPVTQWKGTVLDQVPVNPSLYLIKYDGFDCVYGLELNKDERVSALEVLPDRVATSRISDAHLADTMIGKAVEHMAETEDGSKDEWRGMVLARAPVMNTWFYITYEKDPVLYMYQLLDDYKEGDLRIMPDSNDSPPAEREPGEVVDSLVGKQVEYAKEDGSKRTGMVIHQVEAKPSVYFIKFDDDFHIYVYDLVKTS
Target sequence in this assay (Q9BUA3 whole entry, chain 2 of 2, further chain): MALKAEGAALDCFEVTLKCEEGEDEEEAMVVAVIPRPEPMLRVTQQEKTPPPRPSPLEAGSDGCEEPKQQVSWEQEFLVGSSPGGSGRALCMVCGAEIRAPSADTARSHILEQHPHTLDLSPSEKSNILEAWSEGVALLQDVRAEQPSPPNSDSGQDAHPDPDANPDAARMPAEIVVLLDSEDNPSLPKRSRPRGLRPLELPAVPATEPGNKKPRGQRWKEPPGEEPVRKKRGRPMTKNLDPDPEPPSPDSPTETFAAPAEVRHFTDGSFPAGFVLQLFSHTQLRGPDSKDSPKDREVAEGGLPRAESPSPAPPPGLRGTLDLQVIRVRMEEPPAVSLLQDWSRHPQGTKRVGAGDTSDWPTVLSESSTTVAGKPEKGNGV
The target in assay [4] is Spindlin1 W62A/C11orf84 complex (human) (UniProt Q9Y657). The assay is described as above.
Target sequence in this assay (Q9Y657 50-262 W62A, chain 1 of 2): as the sequence (Q9Y657 50-262 F141A, chain 1 of 2) above, with W13A, A92F counted along it
Target sequence in this assay (Q9BUA3 whole entry, chain 2 of 2, further chain): as the sequence (Q9BUA3 whole entry, chain 2 of 2, further chain) above
The target of assay [5] is Spindlin1 W62A/W72A/C11orf84 complex (human) (UniProt Q9Y657). Described as above.
Target sequence in this assay (Q9Y657 50-262 W62A/W72A, chain 1 of 2): as the sequence (Q9Y657 50-262 F141A, chain 1 of 2) above, with W13A, W23A, A92F counted along it
Target sequence in this assay (Q9BUA3 whole entry, chain 2 of 2, further chain): as the sequence (Q9BUA3 whole entry, chain 2 of 2, further chain) above
Assay [6] addresses Spindlin1 W72A/C11orf84 complex (human) (UniProt Q9Y657). Described as above.
Target sequence in this assay (Q9Y657 50-262 W72A, chain 1 of 2): as the sequence (Q9Y657 50-262 F141A, chain 1 of 2) above, with W23A, A92F counted along it
Target sequence in this assay (Q9BUA3 whole entry, chain 2 of 2, further chain): as the sequence (Q9BUA3 whole entry, chain 2 of 2, further chain) above
Assay [7] deals with Spindlin1 Y91A/C11orf84 complex (human) (UniProt Q9Y657). The assay is described as above.
Target sequence in this assay (Q9Y657 50-262 Y91A, chain 1 of 2): as the sequence (Q9Y657 50-262 F141A, chain 1 of 2) above, with Y42A, A92F counted along it
Target sequence in this assay (Q9BUA3 whole entry, chain 2 of 2, further chain): as the sequence (Q9BUA3 whole entry, chain 2 of 2, further chain) above
The target in assay [8] is Spindlin1 Y98A/C11orf84 complex (human) (UniProt Q9Y657). The description is as above.
Target sequence in this assay (Q9Y657 50-262 Y98A, chain 1 of 2): as the sequence (Q9Y657 50-262 F141A, chain 1 of 2) above, with Y49A, A92F counted along it
Target sequence in this assay (Q9BUA3 whole entry, chain 2 of 2, further chain): as the sequence (Q9BUA3 whole entry, chain 2 of 2, further chain) above
The target in assay [9] is Spindlin1/C11orf84 complex (human) (UniProt Q9Y657). The description is as above.
For assay [10], the target named is Spindlin1 D173A/C11orf84 complex (human) (UniProt Q9Y657). The assay is described as follows: ITC; 25 °C, MicroCal ITC200; 20 mM HEPES pH 7.5, 150 mM NaCl; 0.8 mM H3 peptide injected into 50 μM protein or complex in the sample cell.
Assay [11] has as its target Spindlin1 F141A/C11orf84 complex (human) (UniProt Q9Y657). Described as above.
Assay [12] deals with Spindlin1 W62A/C11orf84 complex (human) (UniProt Q9Y657). The assay is described as above.
The target of assay [13] is Spindlin1 W62A/W72A/C11orf84 complex (human) (UniProt Q9Y657). Described as above.
For assay [14], the target named is Spindlin1 W72A/C11orf84 complex (human) (UniProt Q9Y657). The description is as above.
The target in assay [15] is Spindlin1 Y91A/C11orf84 complex (human) (UniProt Q9Y657). Described as above.
Assay [16] addresses Spindlin1 Y98A/C11orf84 complex (human) (UniProt Q9Y657). Described as above.

Chain of Spindlin1 (aa: 50–262) (human) (Q9Y657 50-262): as the sequence (Q9Y657 50-262 F141A, chain 1 of 2) above, with A92F counted along it

For the substance H3K4me3R8me2a peptide, H3 (1-12), in assay [1], the Kd is 82 nM and the stoichiometry N came out at 1.04.

In assay [1], H3K9me3 peptide, H3 (1-12) came in with a Kd of 2880 nM and a stoichiometry N of 1.02.

In assay [1], H3K4me3K9me2 peptide, H3 (1-12) yielded a Kd of 42 nM and a stoichiometry N of 1.01.

In assay [1], H3K4me3 peptide, H3 (1-12) registered a Kd of 213 nM and a stoichiometry N of 1.01.

With H3K4me3K9me3 peptide, the Kd was found to be 46 nM in assay [2] and 20 nM in assay [9]. Further, the fold reduction in binding affinity against wild type amounted to 40 fold in assay [3]; 3 fold in assay [4]; 10 fold in assay [5]; 3 fold in assay [6]; 3 fold in assay [7]; 3 fold in assay [8].

For H3K4me3K9me3 peptide, H3 (1-12), the stoichiometry N was found to be 1.04 in assay [10]; 1.03 in [11]; 1.06 in [12]; 1 in [13]; 1.07 in assay [14]; 1.07 in assay [15]. For the same substance, the stoichiometry N came out at 1.07 in assay [16] and 1.02 in [1].

Source of the values: PMC7878818.
